PMC4720616, “Influence of tumour size on the efficacy of targeted alpha therapy with ^213Bi-[DOTA^0,Tyr^3]-octreotate” (EJNMMI Research, 2016)

Assays:
[1] = test system: kidney; conditions: mouse, in vivo
[2] = test system: H69 (human small cell lung carcinoma) tumours; assay: Targeted alpha therapy: tumour growth and survival, H69 tumours; type: in vivo, human tumour cells in BALB/c (nu/nu) nude mice; conditions: for Mean time to reach a tumour volume of 2000 mm^3: i.v. 2–4 MBq/0.3 nmol ^213Bi-DOTATATE or 0.3 nmol unlabelled DOTATATE (control) on three consecutive days, mean ± SD; for Median survival: follow-up 90 days after treatment
Experimental: (§1) All animal studies were in agreement with the Animal Welfare Committee requirements of Erasmus MC and conducted in accordance with accepted guidelines. Male 6–8-week-old BALB/c (nu/nu) nude mice were obtained from Charles River (Kißlegg, Germany). Subcutaneous tumours were established in mice by inoculation of approximately 5 × 10^6 cells (CA20948 or H69), suspended in 200 μL sterile culture medium Hanks’ balanced salt solution (HBSS) in the case of CA20948 cells. Three days after inoculation of CA20948 cells, a tumour with a tumour size ~50 mm^3 (used for the “smaller” tumour-size group) was reached, and 2 weeks after inoculation, a tumour size ~200 mm^3 (used for the “larger” tumour-size group) was reached. For H69 cells, 200 μL, containing 1/3 Matrigel and 2/3 HBSS medium (Gibco, Life Technologies), was used. The cells were injected subcutaneously (s.c.) into the right flank of the mice. One week after inoculation of tumour cells, tumours with a volume of ~50 mm^3 (used for the smaller tumour-size group) could be detected, and after 3 weeks, tumour volumes reached ~200 mm^3 (used for the larger tumour-size group). Tumour volumes were estimated using a calliper.
(§2) Tumour cells were inoculated into the right flank of the mice, and the tumours were allowed to grow until tumour volumes of approximately 50 and 200 mm^3 were reached, respectively. […] The control group (H69-bearing animals: small tumour n = 10, large tumour n = 9; CA20948-bearing animals: small tumour n = 5, large tumour n = 5) received i.v. via the tail vein three times 0.3 nmol/200 μL of unlabelled DOTATATE for three consecutive days.
(§3) All animals were followed for 90 days after treatment. The behaviour and the health status of the animals were observed daily, and the weight of the animals and the tumour volumes were monitored twice a week.

[3] = test system: CA20948 (rat pancreatic tumour) tumours; assay: Targeted alpha therapy: tumour growth and survival, CA20948 tumours; type: in vivo, rat tumour cells in BALB/c (nu/nu) nude mice; conditions: for Mean time to reach a tumour volume of 2000 mm^3: i.v. 2–4 MBq/0.3 nmol ^213Bi-DOTATATE or 0.3 nmol unlabelled DOTATATE (control) on three consecutive days, mean ± SD; for Median survival: follow-up 90 days after treatment
Experimental: as §1, §2, §3

[4] = in the absence of L-lysine; ref manuscript in preparation; cited from earlier work
Text: In patients, the maximum tolerated dose in kidney is postulated to b ...

[5] = test system: H69 tumour-bearing mice; assay: in vivo; parameters: species or system BALB/c (nu/nu) nude mice; conditions: mouse, iv
Experimental: (§4) When tumour volumes reached ~120 mm^3, animals were divided into five groups with seven animals in each group for both H69 and CA20948 tumour-bearing animals. […] At 10, 30, 60 and 120 min post injection (p.i.), animals in the four groups were euthanized and tissues and organs of interest (including tumour, kidney, pancreas, spleen, liver, muscle, blood, femur, femur marrow and adrenals) were collected and counted using a gamma counter (Wallac Wizard 3, PerkinElmer, USA). […] The animals of the control group were euthanized 60 min p.i.; tissues and organs of interest were harvested and counted using a gamma counter. Data was expressed in mean percentage of total injected radioactivity per gram tissue (%IA/g) ± SD.

[6] = test system: CA20948 tumour-bearing mice; assay: in vivo; parameters: species or system BALB/c (nu/nu) nude mice; conditions: mouse, iv
Experimental: as §4

[7] = in vivo; parameters: species or system BALB/c (nu/nu) nude mice; conditions: BALB/c (nu/nu) nude, mouse, iv, total radioactivity
Experimental: as §4

[8] = H69 small tumours, after treatment
[9] = 3.8 MBq/0.3 nmol/200 uL, Uptake, Adrenal
[10] = 3.8 MBq/0.3 nmol/200 uL, Uptake, Blood
[11] = 3.8 MBq/0.3 nmol/200 uL, Uptake, Femur
[12] = 3.8 MBq/0.3 nmol/200 uL, Uptake, Kidney
[13] = 3.8 MBq/0.3 nmol/200 uL, Uptake, Liver
[14] = 3.8 MBq/0.3 nmol/200 uL, Uptake, Muscle
[15] = 3.8 MBq/0.3 nmol/200 uL, Uptake, Tumour

In the case of `C[C@@H](O)[C@H](NC(=O)[C@@H]1CSSC[C@H](NC(=O)[C@@H](Cc2ccccc2)NC(=O)CN2CCN(CC(=O)O)CCN(CC(=O)O)CCN(CC(=O)O)CC2)C(=O)N[C@@H](Cc2ccc(O)cc2)C(=O)N[C@H](Cc2c[nH]c3ccccc23)C(=O)N[C@@H](CCCCN)C(=O)N[C@@H]([C@@H](C)O)C(=O)N1)C(=O)O` [^213Bi-DOTATATE, ^213Bi-[DOTA^0, Tyr^3]-octreotate, metal not drawn], the “Kidney histology, control vs treated animals” value [1] is reported as “no significant differences were observed”, the Tumour response ([2]; H69 large tumours) is reported as “partial response” and the “Mean time to reach a tumour volume of 2000 mm^3” value (shortened to “Mean time”) ([2]; H69 large tumours (~200 mm^3)) is reported as 110 ± 19 days. The “Effect on tumour volume” value ([2]; H69 large tumours, cumulative injected activity 9.4 ± 0.7 MBq) was “Shrinkage of tumours was observed”, the Median survival ([2]; H69 large tumours) was greater than 90 days and the “Mean time” value ([2]; H69 small tumours (~50 mm^3)) was 102 ± 19 days. For the same compound, the “Animals with partial response” value [2, 8] was “eight”, the “Animals with stable disease” value [2, 8] was “two” and the “Animals with no tumour regrowth until the end of the study at day 90” value ([2]; H69 small tumours, n = 10 treated) was “two”. The Median survival ([2]; H69 small tumours) was greater than 90 days, the Tumour response ([3]; CA20948 large tumours) was “partial response” and the “Mean time” value ([3]; CA20948 large tumours (~200 mm^3)) was 77 ± 25 days. The Median survival ([3]; CA20948 large tumours) was 70 days, the “Mean time” value ([3]; CA20948 small tumours (~50 mm^3)) was 76 ± 15 days and the “Animals with stable disease till the end of the study” value ([3]; CA20948 small tumours, after therapy) was “one”. The “Animals with no tumour regrowth” value ([3]; CA20948 small tumours, n = 8 treated) was “one”, the Median survival ([3]; CA20948 small tumours) was greater than 90 days and the Maximum tolerated activity [4] was less than 13.1 ± 1.2 MBq. For the same compound, the “Blood clearance T1/2” value [5] was 11 ± 2 min, the “Tumour clearance T1/2” value [5] was 138 ± 66 min and the “Tumour uptake T1/2” value [5] was 7 ± 2 min. For the same compound, the “Blood clearance T1/2” value [6] was 14 ± 1 min, the “Renal clearance T1/2” value [6] was 10 ± 3 min and the “Tumour clearance T1/2” value [6] was 132 ± 54 min. It also gave a tissue uptake at 10 min ([7]; 2.1 MBq/0.3 nmol/200 uL, Uptake, Kidney) of 51.5 ± 16.6 %ID/g, a tissue uptake at 2 h ([7]; 2.1 MBq/0.3 nmol/200 uL, Uptakes in other organs (other than tumour and kidney)) of less than 2 %ID/g and a tissue uptake at 2 h ([7]; 3.8 MBq/0.3 nmol/200 uL, Uptake in all other organs (other than tumour and kidney)) of less than 2 %ID/g. It also gave a tissue uptake at 0.5 h [7, 9] of 2 ± 0.6 %ID/g, a tissue uptake at 1 h [7, 9] of 0.9 ± 0.4 %ID/g and a tissue uptake at 2 h [7, 9] of 0.7 ± 0.4 %ID/g. The tissue uptake at 10 min [7, 10] was 8.1 ± 1.8 %ID/g, the tissue uptake at 0.5 h [7, 10] was 2.3 ± 1.1 %ID/g and the tissue uptake at 1 h [7, 10] was 0.6 ± 0.2 %ID/g. The tissue uptake at 2 h [7, 10] was 0.1 ± 0.06 %ID/g, the tissue uptake at 0.5 h [7, 11] was 1.5 ± 0.4 %ID/g and the tissue uptake at 1 h [7, 11] was 1 ± 0.5 %ID/g. The tissue uptake at 2 h [7, 11] was 0.4 ± 0.4 %ID/g, the tissue uptake at 10 min [7, 12] was 44 ± 9.6 %ID/g and the tissue uptake at 0.5 h [7, 12] was 28.5 ± 3.7 %ID/g. It also gave a tissue uptake at 1 h [7, 12] of 26.2 ± 2.6 %ID/g, a tissue uptake at 2 h [7, 12] of 25 ± 3.8 %ID/g and a tissue uptake at 0.5 h [7, 13] of 0.9 ± 0.09 %ID/g. For the same compound, the tissue uptake at 1 h [7, 13] was 0.4 ± 0.06 %ID/g, the tissue uptake at 2 h [7, 13] was 0.3 ± 0.05 %ID/g and the tissue uptake at 0.5 h [7, 14] was 1.1 ± 0.2 %ID/g. For the same compound, the tissue uptake at 1 h [7, 14] was 1 ± 1.4 %ID/g, the tissue uptake at 2 h [7, 14] was 0.5 ± 0.4 %ID/g and the tissue uptake at 10 min ([7]; 3.8 MBq/0.3 nmol/200 uL, Uptake, Pancreas) was 3.2 ± 0.3 %ID/g. It also gave a tissue uptake at 10 min [7, 15] of 7.5 ± 2.2 %ID/g, a tissue uptake at 0.5 h [7, 15] of 9.8 ± 2.4 %ID/g and a tissue uptake at 1 h [7, 15] of 9.8 ± 2.3 %ID/g. The tissue uptake at 2 h [7, 15] was 6.8 ± 3.2 %ID/g.
